From IntAct's records for PubMed 12679424

B1: Insulin receptor substrate 1 (Homo sapiens), P35568 (parent)
chain: MASPPESDGFSDVRKVGYLRKPKSMHKRFFVLRAASEAGGPARLEYYENEKKWRHKSSAPKRSIPLESCFNINKRADSKNKHLVALYTRDEHFAIAADSEAEQDSWYQALLQLHNRAKGHHDGAAALGAGGGGGSCSGSSGLGEAGEDLSYGDVPPGPAFKEVWQVILKPKGLGQTKNLIGIYRLCLTSKTISFVKLNSEAAAVVLQLMNIRRCGHSENFFFIEVGRSAVTGPGEFWMQVDDSVVAQNMHETILEAMRAMSDEFRPRSKSQSSSNCSNPISVPLRRHHLNNPPPSQVGLTRRSRTESITATSPASMVGGKPGSFRVRASSDGEGTMSRPASVDGSPVSPSTNRTHAHRHRGSARLHPPLNHSRSIPMPASRCSPSATSPVSLSSSSTSGHGSTSDCLFPRRSSASVSGSPSDGGFISSDEYGSSPCDFRSSFRSVTPDSLGHTPPARGEEELSNYICMGGKGPSTLTAPNGHYILSRGGNGHRCTPGTGLGTSPALAGDEAASAADLDNRFRKRTHSAGTSPTITHQKTPSQSSVASIEEYTEMMPAYPPGGGSGGRLPGHRHSAFVPTRSYPEEGLEMHPLERRGGHHRPDSSTLHTDDGYMPMSPGVAPVPSGRKGSGDYMPMSPKSVSAPQQIINPIRRHPQRVDPNGYMMMSPSGGCSPDIGGGPSSSSSSSNAVPSGTSYGKLWTNGVGGHHSHVLPHPKPPVESSGGKLLPCTGDYMNMSPVGDSNTSSPSDCYYGPEDPQHKPVLSYYSLPRSFKHTQRPGEPEEGARHQHLRLSTSSGRLLYAATADDSSSSTSSDSLGGGYCGARLEPSLPHPHHQVLQPHLPRKVDTAAQTNSRLARPTRLSLGDPKASTLPRAREQQQQQQPLLHPPEPKSPGEYVNIEFGSDQSGYLSGPVAFHSSPSVRCPSQLQPAPREEETGTEEYMKMDLGPGRRAAWQESTGVEMGRLGPAPPGAASICRPTRAVPSSRGDYMTMQMSCPRQSYVDTSPAAPVSYADMRTGIAAEEVSLPRATMAAASSSSAASASPTGPQGAAELAAHSSLLGGPQGPGGMSAFTRVNLSPNRNQSAKVIRADPQGCRRRHSSETFSSTPSATRVGNTVPFGAGAAVGGGGGSSSSSEDVKRHSSASFENVWLRPGELGGAPKEPAKLCGAAGGLENGLNYIDLDLVKDFKQCPQECTPEPQPPPPPPPHQPLGSGESSSTRRSSEDLSAYASISFQKQPEDRQ

Variants of: B1
Details: with p85a_mouse Pik3r1, P26450
Sequence of p85a_mouse Pik3r1, P26450 (P26450 whole entry): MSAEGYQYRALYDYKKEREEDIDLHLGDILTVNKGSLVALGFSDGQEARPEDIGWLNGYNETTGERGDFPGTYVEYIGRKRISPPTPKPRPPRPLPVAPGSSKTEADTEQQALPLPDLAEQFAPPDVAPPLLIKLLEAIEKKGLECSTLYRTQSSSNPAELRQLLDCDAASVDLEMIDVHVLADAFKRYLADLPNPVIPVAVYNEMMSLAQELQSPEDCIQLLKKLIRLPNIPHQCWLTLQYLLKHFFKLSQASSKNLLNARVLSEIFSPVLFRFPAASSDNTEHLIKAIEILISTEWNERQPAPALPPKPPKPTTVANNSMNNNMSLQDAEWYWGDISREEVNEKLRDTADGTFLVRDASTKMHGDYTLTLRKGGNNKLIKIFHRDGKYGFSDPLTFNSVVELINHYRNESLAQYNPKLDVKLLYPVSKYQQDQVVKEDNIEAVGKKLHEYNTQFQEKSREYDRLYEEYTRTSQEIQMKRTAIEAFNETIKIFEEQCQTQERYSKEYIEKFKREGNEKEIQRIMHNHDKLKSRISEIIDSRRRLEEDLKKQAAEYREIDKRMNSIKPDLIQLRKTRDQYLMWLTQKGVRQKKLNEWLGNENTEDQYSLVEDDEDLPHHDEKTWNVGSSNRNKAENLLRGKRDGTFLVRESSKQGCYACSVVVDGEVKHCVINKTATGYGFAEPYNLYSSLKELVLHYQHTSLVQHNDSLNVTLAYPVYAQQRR
With T608R the “effect of a mutation on the interaction” value was “decreasing interaction”.
